The values that follow come from article PMC10039853, “Increasing the melting temperature of VHH with the in silico free energy score” (Scientific Reports, 2023).

Changes are numbered by the printed parent chain. Names may count otherwise.

The chains are these.
B1: D3-L11 A79W (VHH)
VHH: DVQLVESGGGSVQAGGSLRLSCAASGSTDSIEYMTWFRQAPGKAREGVAALYTHTGNTYYTDSVKGRFTISQDKAKNMWYLRMDSVKSEDTAIYTCGATRKYVPVRFALDQSSYDYWGQGTQVTVSS
notes: as the VHH chain of Sm1 (D3-L11 wild type, PDB 6JB8) with A79W; SAG tripeptide linker before the C-terminal 6xHis tag; source: ExpiCHO, transient transfection, purified from supernatant (His Mag Sepharose excel); not shown: His6, C-terminal, kept
B2: D3-L11 A79K (VHH)
VHH: B1 VHH with W79K
notes: as the VHH chain of m2 (D3-L11, PDB 6JB8) with the stated substitution; Second-round mutant; same construct as m2; Too little protein for SPR; also called K mutant; source: ExpiCHO, transient transfection, purified from supernatant (His Mag Sepharose excel); not shown: His6 (after a SAG tripeptide linker), C-terminal, kept
B3: D3-L11 A79N (VHH)
VHH: B1 VHH with W79N
notes: as the VHH chain of m2 (D3-L11, PDB 6JB8) with the stated substitution; Second-round mutant; same construct as m2; also called N mutant; source: ExpiCHO, transient transfection, purified from supernatant (His Mag Sepharose excel); not shown: His6 (after a SAG tripeptide linker), C-terminal, kept
B4: D3-L11 A79M (VHH)
VHH: B1 VHH with W79M
notes: as the VHH chain of m2 (D3-L11, PDB 6JB8) with the stated substitution; Second-round mutant; same construct as m2; also called M mutant; source: ExpiCHO, transient transfection, purified from supernatant (His Mag Sepharose excel); not shown: His6 (after a SAG tripeptide linker), C-terminal, kept
B5: D3-L11 A79P (VHH)
VHH: B1 VHH with W79P
notes: as the VHH chain of m2 (D3-L11, PDB 6JB8) with the stated substitution; Second-round mutant; same construct as m2; Too little protein for SPR; also called P mutant; source: ExpiCHO, transient transfection, purified from supernatant (His Mag Sepharose excel); not shown: His6 (after a SAG tripeptide linker), C-terminal, kept
B6: D3-L11 A79L (VHH)
VHH: B1 VHH with W79L
notes: as the VHH chain of m2 (D3-L11, PDB 6JB8) with the stated substitution; Second-round mutant; same construct as m2; also called L mutant; source: ExpiCHO, transient transfection, purified from supernatant (His Mag Sepharose excel); not shown: His6 (after a SAG tripeptide linker), C-terminal, kept
B7: D3-L11 A79V (VHH)
VHH: B1 VHH with W79V
notes: as the VHH chain of m2 (D3-L11, PDB 6JB8) with the stated substitution; Second-round mutant; same construct as m2; also called V mutant; source: ExpiCHO, transient transfection, purified from supernatant (His Mag Sepharose excel); not shown: His6 (after a SAG tripeptide linker), C-terminal, kept
B8: D3-L11 A79E (VHH)
VHH: B1 VHH with W79E
notes: as the VHH chain of m2 (D3-L11, PDB 6JB8) with the stated substitution; Second-round mutant; same construct as m2; Too little protein for SPR; also called E mutant; source: ExpiCHO, transient transfection, purified from supernatant (His Mag Sepharose excel); not shown: His6 (after a SAG tripeptide linker), C-terminal, kept
B9: D3-L11 A79S (VHH)
VHH: B1 VHH with W79S
notes: as the VHH chain of m2 (D3-L11, PDB 6JB8) with the stated substitution; Second-round mutant; same construct as m2; also called S mutant; source: ExpiCHO, transient transfection, purified from supernatant (His Mag Sepharose excel); not shown: His6 (after a SAG tripeptide linker), C-terminal, kept
B10: D3-L11 A79W (VHH)
VHH: B1 VHH
notes: as the VHH chain of m2 (D3-L11, PDB 6JB8) with the stated substitution; Second-round mutant; same construct as m2; also called W mutant; source: ExpiCHO, transient transfection, purified from supernatant (His Mag Sepharose excel); not shown: His6 (after a SAG tripeptide linker), C-terminal, kept
B11: D3-L11 A79R (VHH)
VHH: B1 VHH with W79R
notes: as the VHH chain of m2 (D3-L11, PDB 6JB8) with the stated substitution; Second-round mutant; same construct as m2; also called R mutant; source: ExpiCHO, transient transfection, purified from supernatant (His Mag Sepharose excel); not shown: His6 (after a SAG tripeptide linker), C-terminal, kept
B12: D3-L11 A79Y (VHH)
VHH: B1 VHH with W79Y
notes: as the VHH chain of m2 (D3-L11, PDB 6JB8) with the stated substitution; Second-round mutant; same construct as m2; also called Y mutant; source: ExpiCHO, transient transfection, purified from supernatant (His Mag Sepharose excel); not shown: His6 (after a SAG tripeptide linker), C-terminal, kept
B13: D3-L11 A79I (VHH)
VHH: B1 VHH with W79I
notes: as the VHH chain of m2 (D3-L11, PDB 6JB8) with the stated substitution; Second-round mutant; same construct as m2; also called I mutant; source: ExpiCHO, transient transfection, purified from supernatant (His Mag Sepharose excel); not shown: His6 (after a SAG tripeptide linker), C-terminal, kept
B14: D3-L11 A79Q (VHH)
VHH: B1 VHH with W79Q
notes: as the VHH chain of m2 (D3-L11, PDB 6JB8) with the stated substitution; Second-round mutant; same construct as m2; also called Q mutant; source: ExpiCHO, transient transfection, purified from supernatant (His Mag Sepharose excel); not shown: His6 (after a SAG tripeptide linker), C-terminal, kept
B15: D3-L11 A79C (VHH)
VHH: B1 VHH with W79C
notes: as the VHH chain of m2 (D3-L11, PDB 6JB8) with the stated substitution; Second-round mutant; same construct as m2; also called C mutant; source: ExpiCHO, transient transfection, purified from supernatant (His Mag Sepharose excel); not shown: His6 (after a SAG tripeptide linker), C-terminal, kept
B16: D3-L11 A79H (VHH)
VHH: B1 VHH with W79H
notes: as the VHH chain of m2 (D3-L11, PDB 6JB8) with the stated substitution; Second-round mutant; same construct as m2; also called H mutant; source: ExpiCHO, transient transfection, purified from supernatant (His Mag Sepharose excel); not shown: His6 (after a SAG tripeptide linker), C-terminal, kept
B17: D3-L11 A79T (VHH)
VHH: B1 VHH with W79T
notes: as the VHH chain of m2 (D3-L11, PDB 6JB8) with the stated substitution; Second-round mutant; same construct as m2; also called T mutant; source: ExpiCHO, transient transfection, purified from supernatant (His Mag Sepharose excel); not shown: His6 (after a SAG tripeptide linker), C-terminal, kept
B18: D3-L11 A79F (VHH)
VHH: B1 VHH with W79F
notes: as the VHH chain of m2 (D3-L11, PDB 6JB8) with the stated substitution; First-round mutant; same construct as m2; also called F mutant; source: ExpiCHO, transient transfection, purified from supernatant (His Mag Sepharose excel); not shown: His6 (after a SAG tripeptide linker), C-terminal, kept

One assay has as its target T1, hen egg lysozyme (Gallus gallus (hen egg white), UniProt P00698).
T1 construct: hen egg lysozyme (HEL), the antigen of D3-L11; also in PDB 6JB8; The supplier is named for the ELISA only; also called HEL; antigen lysozyme; source: bought: Sigma-Aldrich, Cat No. L6876
The assay can be described thus: SPR; Biacore T200; lysozyme immobilised on Sensor Chip CM5 by amine coupling (200 RU); VHH injected 300 s, dissociation 600 s in PBST (PBS, 0.005% Tween 20); 1:1 binding model; duplicate. The note with it: both partners purified. Background: Surface plasmon resonance follows binding to a sensor surface in real time, without labels.
T1 sequence (P00698 19-147): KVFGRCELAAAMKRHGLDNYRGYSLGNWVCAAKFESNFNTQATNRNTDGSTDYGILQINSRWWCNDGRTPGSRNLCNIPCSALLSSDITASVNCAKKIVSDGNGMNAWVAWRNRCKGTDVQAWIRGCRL
For orientation: Kd means the concentration at which binding is half-saturated. Regarding B1, the equilibrium dissociation constant (Kd) was 0.0149 ± 0.0001 nM.

For another assay, the target named is T2, hen egg lysozyme (Gallus gallus (hen egg white), UniProt P00698).
T2 construct: hen egg lysozyme (HEL), antigen of VHH D3-L11; also in the complex structure PDB 6JB8; also called HEL; antigen lysozyme; source: bought: Sigma-Aldrich, Cat No. L6876 (named for the ELISA)
The assay can be described thus: ELISA; lysozyme (1 ug/mL) coated on 384-well MaxiSorp plate overnight at 4 °C; serial concentrations of VHH in 5% BlockingOne in TBST, 1 h at room temperature; detected with Penta-His HRP conjugate. As to conditions: both partners purified. For orientation: An ELISA detects its analyte on a solid surface through an enzyme-linked reagent.
T2 sequence (P00698 19-147): as above
On to B2, for which the binding result was “binds”.

On to B3, for which the “fold decrease in affinity (EC50) against wild type” value (“fold decrease in affinity (EC50)” below) is < 10 fold.

As for B4, the “fold decrease in affinity (EC50)” value was < 10 fold.

B5: the binding result is reported as “binds”.

For B6, the “fold decrease in affinity (EC50)” value is < 10 fold.

With B7, the “fold decrease in affinity (EC50)” value was < 10 fold.

As for B8, the binding result was “binds”.

Regarding B9, the “fold decrease in affinity (EC50)” value was < 10 fold.

A further assay addresses T2, hen egg lysozyme. The assay can be described thus: SPR; Biacore T200; lysozyme immobilised on Sensor Chip CM5 by amine coupling to 200 RU; VHH injected 300 s, dissociation 600 s; running buffer PBST (PBS, 0.005% Tween 20); duplicate; 1:1 binding model. The note with it: both partners purified.
As for B10, the “fold decrease in affinity (KD) against wild type” value (from here on “fold decrease in affinity (KD)”) is < 10 fold.

Take B11: the “fold decrease in affinity (KD)” value is < 10 fold.

Turning to B3, the “fold decrease in affinity (KD)” value is < 10 fold.

With B4, the “fold decrease in affinity (KD)” value is < 10 fold.

As for B12, the “fold decrease in affinity (KD)” value is < 2 fold.

With B13, the “fold decrease in affinity (KD)” value came to 1.6 fold.

For the molecule B14, the “fold decrease in affinity (KD)” value is < 10 fold.

With B6, the “fold decrease in affinity (KD)” value is < 10 fold.

Turning to B15, the “fold decrease in affinity (KD)” value is < 2 fold.

With B7, the “fold decrease in affinity (KD)” value is < 2 fold.

Turning to B16, the “fold decrease in affinity (KD)” value is < 10 fold.

As to B17, the “fold decrease in affinity (KD)” value was < 10 fold.

On to B9, for which the “fold decrease in affinity (KD)” value is < 10 fold.

Turning to B18, the “fold decrease in affinity (KD)” value was < 10 fold.
